According to article PMC12196928, “Site-Directed Mutagenesis Mediated by Molecular Modeling and Docking and Its Effect on the Protein–Protein Interactions of the bHLH Transcription Factors SPATULA, HECATE1, and INDEHISCENT” (Plants, 2025):

T1: VN:SPT-4A (SPATULA V176A-V177A-D178A-E179A fused to the N-terminal fragment of Venus YFP) (Arabidopsis thaliana, UniProt Q9FUA4 1-373, V176A | V177A | D178A | E179A)
T1 construct: SPATULA (SPT), Arabidopsis thaliana, AT4G36930; source: Arabidopsis Col-0 mesophyll protoplasts, transfected (PEG-Ca), in cells; not shown: Venus YFP N-terminal fragment (residues 1-154)
T1 sequence (looked up): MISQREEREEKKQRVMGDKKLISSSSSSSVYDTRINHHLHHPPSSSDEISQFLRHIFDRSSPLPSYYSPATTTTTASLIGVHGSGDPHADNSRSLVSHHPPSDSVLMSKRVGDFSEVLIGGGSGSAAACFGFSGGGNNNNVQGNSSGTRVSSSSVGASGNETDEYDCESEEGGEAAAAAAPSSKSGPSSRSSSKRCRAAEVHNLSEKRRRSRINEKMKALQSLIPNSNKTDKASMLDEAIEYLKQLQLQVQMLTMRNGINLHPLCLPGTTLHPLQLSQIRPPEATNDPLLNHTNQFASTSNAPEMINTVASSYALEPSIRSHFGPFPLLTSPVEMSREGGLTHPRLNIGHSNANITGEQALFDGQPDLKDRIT

T2: VN:SPT (SPATULA fused to the N-terminal fragment of Venus YFP) (Arabidopsis thaliana, UniProt Q9FUA4 1-373)
T2 construct: SPATULA (SPT), bHLH transcription factor of Arabidopsis thaliana, AT4G36930; source: Arabidopsis Col-0 mesophyll protoplasts, transfected (PEG-Ca), in cells; not shown: Venus YFP N-terminal fragment (residues 1-154)
T2 sequence (looked up): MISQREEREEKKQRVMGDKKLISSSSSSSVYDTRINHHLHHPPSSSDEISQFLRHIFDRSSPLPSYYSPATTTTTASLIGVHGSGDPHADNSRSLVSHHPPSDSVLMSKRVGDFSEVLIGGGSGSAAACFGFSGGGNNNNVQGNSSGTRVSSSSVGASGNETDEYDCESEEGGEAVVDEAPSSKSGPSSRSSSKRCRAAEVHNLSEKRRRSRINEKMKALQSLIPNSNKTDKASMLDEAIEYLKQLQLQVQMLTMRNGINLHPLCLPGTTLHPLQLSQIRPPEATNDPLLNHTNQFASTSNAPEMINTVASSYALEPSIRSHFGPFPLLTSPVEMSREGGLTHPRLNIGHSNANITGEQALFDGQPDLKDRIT


Key:
VN:SPT-4A (SPATULA …) = target: T1, VN:SPT-4A (SPATULA …); test: split reporter (BiFC, NanoBiT); BiFC with split Venus YFP (VN 1-154, VC 155-238) in Arabidopsis Col-0 mesophyll protoplasts, PEG-Ca transfection, 35S promoter, read 16 h after transfection by confocal microscopy; frequency = YFP-positive protoplasts/total protoplasts x 100, four images of about 200 protoplasts each; settings: partners not purified
[1] = target: T2, VN:SPT (SPATULA fused to the N-terminal …); test: as above; settings: partners not purified

Binder	average interaction frequency (percent of protoplasts with YFP signal) (VN:SPT-4A (SPATULA …)) [%]	average interaction frequency (percent of protoplasts with YFP signal) [1] [%]
VC:IND (INDEHISCENT fused to the C-terminal fragment of Venus YFP) (natural protein, Arabidopsis thaliana, UniProt O81313 1-198, looked up, INDEHISCENT (IND), bHLH transcription factor of Arabidopsis thaliana, AT4G00120; source: Arabidopsis Col-0 mesophyll protoplasts, transfected (PEG-Ca), in cells; not shown: Venus YFP C-terminal fragment (residues 155-238)) MENGMYKKKGVCDSCVSSKSRSNHSPKRSMMEPQPHHLLMDWNKANDLLTQEHAAFLNDPHHLMLDPPPETLIHLDEDEEYDEDMDAMKEMQYMIAVMQPVDIDPATVPKPNRRNVRISDDPQTVVARRRRERISEKIRILKRIVPGGAKMDTASMLDEAIRYTKFLKRQVRILQPHSQIGAPMANPSYLCYYHNSQP	13.5	–
VC:IND-3A (INDEHISCENT N112A-R113A-R114A fused to the C-terminal fragment of Venus YFP) (natural protein, Arabidopsis thaliana, UniProt O81313 1-198, looked up, INDEHISCENT (IND), Arabidopsis thaliana, AT4G00120; the methods list only VC:IND-3A; source: Arabidopsis Col-0 mesophyll protoplasts, transfected (PEG-Ca), in cells; not shown: Venus YFP C-terminal fragment (residues 155-238)) MENGMYKKKGVCDSCVSSKSRSNHSPKRSMMEPQPHHLLMDWNKANDLLTQEHAAFLNDPHHLMLDPPPETLIHLDEDEEYDEDMDAMKEMQYMIAVMQPVDIDPATVPKPAAANVRISDDPQTVVARRRRERISEKIRILKRIVPGGAKMDTASMLDEAIRYTKFLKRQVRILQPHSQIGAPMANPSYLCYYHNSQP	14.9	13
VC:HEC1 (HECATE1 fused to the C-terminal fragment of Venus YFP) (natural protein, Arabidopsis thaliana, UniProt Q9FHA7 1-241, looked up, HECATE1 (HEC1), bHLH transcription factor of Arabidopsis thaliana, AT5G67060; source: Arabidopsis Col-0 mesophyll protoplasts, transfected (PEG-Ca), in cells; not shown: Venus YFP C-terminal fragment (residues 155-238)) MDSDIMNMMMHQMEKLPEFCNPNSSFFSPDHNNTYPFLFNSTHYQSDHSMTNEPGFRYGSGLLTNPSSISPNTAYSSVFLDKRNNSNNNNNGTNMAAMREMIFRIAVMQPIHIDPEAVKPPKRRNVRISKDPQSVAARHRRERISERIRILQRLVPGGTKMDTASMLDEAIHYVKFLKKQVQSLEEQAVVTGGGGGGGGRVLIGGGGMTAASGGGGGGGVVMKGCGTVGTHQMVGNAQILR	–	34.2
